Biological target: T1, Sulfolobus solfataricus PolB1, unlabelled (Sulfolobus solfataricus, UniProt P26811 1-882)
T1 sequence (looked up): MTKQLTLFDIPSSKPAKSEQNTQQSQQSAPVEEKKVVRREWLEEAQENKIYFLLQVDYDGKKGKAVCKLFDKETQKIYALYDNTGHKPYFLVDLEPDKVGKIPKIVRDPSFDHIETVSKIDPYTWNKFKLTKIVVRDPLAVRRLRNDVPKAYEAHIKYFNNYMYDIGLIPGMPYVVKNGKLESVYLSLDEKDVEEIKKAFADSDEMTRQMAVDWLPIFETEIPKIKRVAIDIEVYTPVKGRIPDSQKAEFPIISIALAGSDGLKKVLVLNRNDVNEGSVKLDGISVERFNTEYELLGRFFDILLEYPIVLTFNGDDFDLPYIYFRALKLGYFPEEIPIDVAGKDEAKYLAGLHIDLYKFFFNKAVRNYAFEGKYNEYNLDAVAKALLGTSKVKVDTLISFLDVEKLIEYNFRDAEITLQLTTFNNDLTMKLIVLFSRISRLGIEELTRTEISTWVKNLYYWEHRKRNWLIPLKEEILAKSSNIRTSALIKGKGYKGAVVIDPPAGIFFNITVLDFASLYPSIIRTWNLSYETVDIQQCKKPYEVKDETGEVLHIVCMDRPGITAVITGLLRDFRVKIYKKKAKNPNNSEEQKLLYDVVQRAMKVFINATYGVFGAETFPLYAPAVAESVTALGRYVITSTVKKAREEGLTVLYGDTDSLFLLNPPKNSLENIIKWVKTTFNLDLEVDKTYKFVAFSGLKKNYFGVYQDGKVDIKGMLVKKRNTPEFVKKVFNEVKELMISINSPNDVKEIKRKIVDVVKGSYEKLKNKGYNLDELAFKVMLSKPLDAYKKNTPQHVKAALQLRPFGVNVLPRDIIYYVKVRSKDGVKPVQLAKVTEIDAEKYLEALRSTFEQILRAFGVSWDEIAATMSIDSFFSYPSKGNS
Test: SEC

binding result: binds
B1: Sulfolobus solfataricus Dpo4 (PolY), wild type, unlabelled (enzyme)
chain: MIVLFVDFDYFYAQVEEVLNPSLKGKPVVVCVFSGRFEDSGAVATANYEARKFGVKAGIPIVEAKKILPNAVYLPMRKEVYQQVSSRIMNLLREYSEKIEIASIDEAYLDISDKVRDYREAYNLGLEIKNKILEKEKITVTVGISKNKVFAKIAADMAKPNGIKVIDDEEVKRLIRELDIADVPGIGNITAEKLKKLGINKLVDTLSIEFDKLKGMIGEAKAKYLISLARDEYNEPIRTRVRKSIGRIVTMKRNSRNLEEIKPYLFRAIEESYYKLDKRIPKAIHVVAVTEDLDIVSRGRTFPHGISKETAYSESVKLLQKILEEDERKIRRIGVRFSKFIEAIGLDKFFDT

Reference: article PMC5737361 (Nucleic Acids Research, 2017)
